The values that follow come from patent US20160310424A1 (Stanford University, published 2016).

Test [1] concerns the target T1, Frizzled.
T1 construct: also called Fz; Frizzled, the WNT receptor
Briefly: binding affinity stated with the liposome/Frizzled pull-down competition assay; method behind the value not described.

The target in test [2] is T2, low-density lipoprotein receptor-related protein 6 (LRP6) (UniProt O75581 20-1370, limits assumed).
T2 sequence (looked up): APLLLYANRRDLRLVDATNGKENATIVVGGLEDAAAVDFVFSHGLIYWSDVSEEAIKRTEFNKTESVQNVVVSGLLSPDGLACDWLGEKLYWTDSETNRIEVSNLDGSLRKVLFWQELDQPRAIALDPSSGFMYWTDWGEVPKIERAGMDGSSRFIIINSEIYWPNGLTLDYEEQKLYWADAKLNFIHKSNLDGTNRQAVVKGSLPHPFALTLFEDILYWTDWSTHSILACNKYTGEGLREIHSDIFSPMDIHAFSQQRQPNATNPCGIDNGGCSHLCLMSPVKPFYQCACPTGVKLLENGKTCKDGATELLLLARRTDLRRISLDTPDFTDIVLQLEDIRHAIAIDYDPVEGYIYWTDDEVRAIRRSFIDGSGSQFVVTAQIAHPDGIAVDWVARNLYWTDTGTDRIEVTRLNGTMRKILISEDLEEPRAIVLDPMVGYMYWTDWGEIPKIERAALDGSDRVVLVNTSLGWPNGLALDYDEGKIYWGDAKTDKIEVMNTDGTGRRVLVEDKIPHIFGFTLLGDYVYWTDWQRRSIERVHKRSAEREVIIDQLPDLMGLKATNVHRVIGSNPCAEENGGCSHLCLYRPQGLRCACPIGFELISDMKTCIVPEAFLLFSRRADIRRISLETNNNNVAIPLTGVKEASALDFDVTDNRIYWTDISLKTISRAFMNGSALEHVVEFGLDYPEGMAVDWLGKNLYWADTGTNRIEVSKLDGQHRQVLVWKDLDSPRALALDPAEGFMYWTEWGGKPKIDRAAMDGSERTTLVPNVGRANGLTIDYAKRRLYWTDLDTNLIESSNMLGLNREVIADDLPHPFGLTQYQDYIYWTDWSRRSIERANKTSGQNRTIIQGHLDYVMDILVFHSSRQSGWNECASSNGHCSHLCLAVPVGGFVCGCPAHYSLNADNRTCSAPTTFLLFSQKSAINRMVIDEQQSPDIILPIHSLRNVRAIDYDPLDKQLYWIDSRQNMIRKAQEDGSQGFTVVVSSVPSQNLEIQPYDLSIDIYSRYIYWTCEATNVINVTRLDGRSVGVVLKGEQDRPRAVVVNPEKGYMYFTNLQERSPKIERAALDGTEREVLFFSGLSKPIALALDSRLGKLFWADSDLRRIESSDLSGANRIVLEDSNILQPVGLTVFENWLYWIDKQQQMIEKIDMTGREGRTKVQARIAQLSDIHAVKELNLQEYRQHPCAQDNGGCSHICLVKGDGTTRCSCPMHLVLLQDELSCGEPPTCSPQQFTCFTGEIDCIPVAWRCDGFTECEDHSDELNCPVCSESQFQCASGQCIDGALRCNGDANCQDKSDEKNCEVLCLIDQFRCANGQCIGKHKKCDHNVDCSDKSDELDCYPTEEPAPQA
In words: binding affinity stated in the FIG. 17 legend on the pull-down assays; method behind the value not described.

B1: Human Wnt3a polypeptide (ligand)
chain: SYPIWWSLAVGPQYSSLGSQPILCASIPGLVPKQLRFCRNYVEIMPSVAEGIKIGIQECQHQFRGRRWNCTTVHDSLAIFGPVLDKATRESAFVHAIASAGVAFAVTRSCAEGTAAICGCSSRHQGSPGKGWKWGGCSEDIEFGGMVSREFADARENRPDARSAMNRHNNEAGRQAIASHMHLKCKCHGLSGSCEVKTCWWSQPDFRAIGDFLKDKYDSASEMVVEKHRESRGWVETLRPRYTYFKVPTERDLVYYEASPNFCEPNPETGSFGTRDRTCNVSSHGIDGCDLLCCGRGHNARAERRREKCRCVFHWCCYVSCQECTRVYDVHTCK
modifications: palmitoylated at S209 (paragraph 228 instead reports palmitoylation at S211 and probable myristoleylation at S139 and S181); glycosylated
notes: Secreted from CHO cells and purified on blue Sepharose; In the pull-down assays it was reconstituted into DMPC:cholesterol liposomes (L-Wnt3a); also called L-Wnt3a; L-WNT3A
In the case of B1, the Kd is approximately 3.6 nM in test [1] and approximately 9 nM in test [2].
